# Data taken from paper PMC3241647 (Nucleic Acids Research, 2011).
# Target: the molecule itself
# Test: SEC
protein,measurement,value
Bacillus subtilis Zur C84S (natural protein) not shown,stoichiometry N,2
Bacillus subtilis Zur H89A (natural protein) not shown,binding result,binds
Bacillus subtilis Zur H90A (natural protein) not shown,binding result,binds
